From patent publication US11795460B2, “Compositions and methods for TTR gene editing and treating ATTR amyloidosis” (Intellia Therapeutics, Inc., priority 2017, dated 2023)
Strand notation (5' to 3'): a small letter for the sugar, then the base; units joined by * are phosphorothioate-linked, units joined directly phosphodiester-linked; [ ] holds rarer units or linkages, { } end groups; capitals alone tell only the bases. m = 2'-O-methyl; r = 2'-OH (RNA)

Columns and labels:
human TTR sequence = experiment: Liver editing in humanized TTR mice dosed with LNP formulations (Table 26); format: in vivo, mouse; conditions: for % Editing: Table 26, liver editing, LNP Formulation Numbers 6-16, 1 mg/kg (total RNA content); for Liver editing: LNP Formulation Numbers 1-5, Cas9 mRNA SEQ ID NO:2, 2 mg/kg total RNA, mean values, FIG. 9
Procedure: Unless otherwise noted, CD-1 female mice, ranging from 6-10 weeks of age were used in each study. Animals were weighed and grouped according to body weight for preparing dosing solutions based on group average weight. LNPs were dosed via the lateral tail vein in a volume of 0.2 mL per animal (approximately 10 mL per kilogram body weight). […] Body weight was measured at twenty-four hours post-administration, and animals were euthanized at various time points by exsanguination via cardiac puncture under isoflourane anesthesia. Blood was collected into serum separator tubes or into tubes containing buffered sodium citrate for plasma as described herein. For studies involving in vivo editing, liver tissue was collected from the median lobe or from three independent lobes (e.g., the right median, left median, and left lateral lobes) from each animal for DNA extraction and analysis.
To quantitatively determine the efficiency of editing at the target location in the genome, sequencing was utilized to identify the presence of insertions and deletions introduced by gene editing.
Primers were designed around the target site within the gene of interest (e.g. TTR), and the genomic area of interest was amplified.
Additional PCR was performed per the manufacturer's protocols (Illumina) to add chemistry for sequencing. The amplicons were sequenced on an Illumina MiSeq instrument. The reads were aligned to a reference genome (e.g., the human reference genome (hg38), the cynomologus reference genome (mf5), the rat reference genome (rn6), or the mouse reference genome (mm10)) after eliminating those having low quality scores. The resulting files containing the reads were mapped to the reference genome (BAM files), where reads that overlapped the target region of interest were selected and the number of wild type reads versus the number of reads which contain an insertion, substitution, or deletion was calculated.
The editing percentage (e.g., the “editing efficiency” or “percent editing” or “indel frequency”) is defined as the total number of sequence reads with insertions/deletions (“indels”) or substitutions over the total number of sequence reads, including wild type.
Mice humanized with respect to the TTR gene were dosed with LNP formulations 701-704 containing the guides indicated in Table 25 (5 mice per formulation). These humanized TTR mice were engineered such that a region of the endogenous murine TTR locus was deleted and replaced with an orthologous human TTR sequence so that the locus encodes a human TTR protein. For comparison, 6 mice with murine TTR were dosed with LNP700, containing a guide (G000282) targeting murine TTR. […]

[1] = tested on: potential off-target sites; experiment: Targeted amplicon sequencing of potential off-target sites in PHH treated with LNPs (Tables 31-33); format: cell-based, human; conditions: for Indel Frequency (using LNP with 100 ng Cas9 mRNA and 14.68 nM gRNA) / Indel rate at the on-target site / Indels at in silico predicted off-target sites / Number of potential off-target sites identified by the oligo insertion assay at which indels were detected: PHH treated with LNP; for Indel Frequency (using LNP with 100 ng Cas9 mRNA and 14.68 nM gRNA): NGS targeted amplicon sequencing; for Indel rate at the on-target site / Indels at in silico predicted off-target sites / Number of potential off-target sites identified by the oligo insertion assay at which indels were detected: 100 ng Cas9 mRNA (SEQ ID NO:1), near-saturating dose; for Indel rate at the on-target site: gRNA 14.68 nM; for Number of potential off-target sites identified by the oligo insertion assay at which indels were detected: indels at low levels; for On-target indel rate at highest concentration without detected off-target sites / Highest gRNA concentration at which the potential off-target sites were no longer detected: PHH; for On-target indel rate at highest concentration without detected off-target sites: G000480 at 0.57 nM, G000486 at 15.51 nM gRNA; for Highest gRNA concentration at which the potential off-target sites were no longer detected: LNP dose response, 11 points 0.001-46.55 nM gRNA
Procedure: The HEK293_Cas9 cells used in Example 5 for detecting potential off-targets constitutively overexpress Cas9, leading to a higher number of potential off-target “hits” as compared to a transient delivery paradigm in various cell types. […] Accordingly, potential off-target sites identified by an oligo insertion method as used in Example 5 may be validated using targeted sequencing of the identified potential off-target sites.
In one approach, primary hepatocytes are treated with LNPs comprising Cas9 mRNA and a sgRNA of interest (e.g., a sgRNA having potential off-target sites for evaluation). The primary hepatocytes are then lysed and primers flanking the potential off-target site(s) are used to generate an amplicon for NGS analysis. Identification of indels at a certain level may validate potential off-target site, whereas the lack of indels found at the potential off-target site may indicate a false positive in the HEK293_Cas9 cell assay.
Following the identification of potential off-target sites in […] via the oligo insertion assay, certain potential sites were further evaluated by targeted amplicon sequencing, e.g., as described in Example 6. In addition to the potential off-target sites identified by the oligo insertion strategy, additional potential off-target sites identified by in silico prediction were included in the analysis.
To this end, PHH were treated with LNPs comprising 100 ng of Cas9 mRNA (SEQ ID NO:1) and the gRNA of interest at 14.68 nM (in a 1:1 ratio by weight), as described in Example 4. The LNPs were prepared using the cross-flow procedure described above and purified and concentrated using PD-10 columns and Amicon centrifugal filter units, respectively. The LNPs were formulated with an N:P ratio of 6.0 and contained Lipid A, Cholesterol, DSPC, and PEG2k-DMG in a 50:38:9:2 molar ratio, respectively. Following LNP treatment, isolated genomic DNA was analyzed by NGS (e.g., as described in Examples 1 and 6) to determine whether indels could be detected at the potential off-target site, which would be indicative of a Cas9-mediated cleavage event. Tables 31 and 32 show the potential off-target sites that were evaluated for the gRNAs G000480 and G000486, respectively.
As shown in FIGS. 21A-B and 22A-B and Table 33 below, indels were detected at low levels for only two of the potential off-target sites identified by the oligo insertion assay for G000480, and only one for G000486. […] Further, indels were only detected at these sites using a near-saturating dose of LNP, as the indel rates observed at the on-target sites for G000480 and G000486 were ˜97% and ˜91%, respectively (See Table 33).
A dose response assay was then performed in order to determine the highest dose of LNP in which no off-targets were detected. PHH were treated with LNPs comprising either G000480 or G000486 as described in Example 4. The doses ranged across 11 points with respect to gRNA concentration (0.001 nM, 0.002 nM, 0.007 nM, 0.02 nM, 0.06 nM, 0.19 nM, 0.57 nM, 1.72 nM, 5.17 nM, 15.51 nM, and 46.55 nM).

[2] = Off-Target site INS-OT.4 (of the respective guide)

B1: G000481: TTR sgRNA modified sequence, Human, SEQ ID No. 88; guide sequence of CR003345 (nucleic acid)
guide: mU*mC*mU*rArGrArArCrUrUrUrGrArCrCrArUrCrArGrGrUrUrUrUrArGrAmGmCmUmAmGmAmAmAmUmAmGmCrArArGrUrUrArArArArUrArArGrGrCrUrArGrUrCrCrGrUrUrArUrCrAmAmCmUmUmGmAmAmAmAmAmGmUmGmGmCmAmCmCmGmAmGmUmCmGmGmUmGmCmU*mU*mU*mU
% Editing (human TTR sequence): 61.28%

B2: G000494: TTR sgRNA modified sequence, Human, SEQ ID No. 101; guide sequence of CR003360 (nucleic acid)
guide: mG*mU*mG*rArGrUrCrUrGrGrArGrArGrCrUrGrCrArUrGrUrUrUrUrArGrAmGmCmUmAmGmAmAmAmUmAmGmCrArArGrUrUrArArArArUrArArGrGrCrUrArGrUrCrCrGrUrUrArUrCrAmAmCmUmUmGmAmAmAmAmAmGmUmGmGmCmAmCmCmGmAmGmUmCmGmGmUmGmCmU*mU*mU*mU
Liver editing (human TTR sequence): ~60%

B3: G000499: TTR sgRNA modified sequence, Human, SEQ ID No. 106; guide sequence of CR005303 (nucleic acid)
guide: mU*mG*mA*rArUrCrCrArArGrUrGrUrCrCrUrCrUrGrArGrUrUrUrUrArGrAmGmCmUmAmGmAmAmAmUmAmGmCrArArGrUrUrArArArArUrArArGrGrCrUrArGrUrCrCrGrUrUrArUrCrAmAmCmUmUmGmAmAmAmAmAmGmUmGmGmCmAmCmCmGmAmGmUmCmGmGmUmGmCmU*mU*mU*mU
Liver editing (human TTR sequence): ~60% | % Editing (human TTR sequence): 65.66%

B4: G000480: TTR sgRNA modified sequence, Human, SEQ ID No. 87; guide sequence of CR003353 (nucleic acid)
guide: mA*mA*mA*rGrGrCrUrGrCrUrGrArUrGrArCrArCrCrUrGrUrUrUrUrArGrAmGmCmUmAmGmAmAmAmUmAmGmCrArArGrUrUrArArArArUrArArGrGrCrUrArGrUrCrCrGrUrUrArUrCrAmAmCmUmUmGmAmAmAmAmAmGmUmGmGmCmAmCmCmGmAmGmUmCmGmGmUmGmCmU*mU*mU*mU
Indel Frequency (using LNP with 100 ng Cas9 mRNA and 14.68 nM gRNA) ([1]; Off-Target site INS-OT.2): 1.43% | Indel Frequency (using LNP with 100 ng Cas9 mRNA and 14.68 nM gRNA) [1, 2]: 0.97% | Indel Frequency (using LNP with 100 ng Cas9 mRNA and 14.68 nM gRNA) ([1]; On-Target site): 97.33% | Indel rate at the on-target site [1]: ~97% | Indels at in silico predicted off-target sites [1]: No indels were detected | Number of potential off-target sites identified by the oligo insertion assay at which indels were detected [1]: two | On-target indel rate at highest concentration without detected off-target sites [1]: 84.60% | Highest gRNA concentration at which the potential off-target sites were no longer detected [1]: 0.57 nM

B5: G000486: TTR sgRNA modified sequence, Human, SEQ ID No. 93; guide sequence of CR003339 (nucleic acid)
guide: mA*mC*mA*rCrArArArUrArCrCrArGrUrCrCrArGrCrArGrUrUrUrUrArGrAmGmCmUmAmGmAmAmAmUmAmGmCrArArGrUrUrArArArArUrArArGrGrCrUrArGrUrCrCrGrUrUrArUrCrAmAmCmUmUmGmAmAmAmAmAmGmUmGmGmCmAmCmCmGmAmGmUmCmGmGmUmGmCmU*mU*mU*mU
Indel Frequency (using LNP with 100 ng Cas9 mRNA and 14.68 nM gRNA) [1, 2]: 0.47% | Indel Frequency (using LNP with 100 ng Cas9 mRNA and 14.68 nM gRNA) ([1]; On-Target site): 91.33% | Indel rate at the on-target site [1]: ~91% | Indels at in silico predicted off-target sites [1]: No indels were detected | Number of potential off-target sites identified by the oligo insertion assay at which indels were detected [1]: one | On-target indel rate at highest concentration without detected off-target sites [1]: 89.50% | Highest gRNA concentration at which the potential off-target sites were no longer detected [1]: 15.51 nM
